In one experiment the target is T1, GST-Kif7-CC (460-600aa) (human, UniProt Q2M1P5 460-600).
T1 construct: held on the BLI sensor through the GST tag; also called Kif7 coiled-coil domain; coiled-coil dimerization domain fragment of Kif7; not shown: N-terminal GST tag (HRV protease cleavable, modified pGEX vector)
T1 sequence: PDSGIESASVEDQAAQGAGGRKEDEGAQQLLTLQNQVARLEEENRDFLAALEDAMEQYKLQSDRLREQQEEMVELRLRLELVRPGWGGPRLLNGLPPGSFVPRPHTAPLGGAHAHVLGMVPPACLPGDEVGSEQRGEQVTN
As to the kind of experiment: BLI association step, GST-Kif7-CC on the sensor, soluble truncation at 125 nM [panel C]. Here is the method: Equilibrium dissociation constants Kd (shown in parenthesis) were determined by fitting complete binding curves to Hill equation (See FIG. 10C). See also FIGS. 10A, 10B & 10C. Data is representative trace of a minimum of three repeats.
BLI experiments were performed in an Octet Red 96 instrument (ForteBio). To quantify Kif7-Gli2 binding, Experiments were performed in an assay buffer containing 40 mM TRIS pH7.3, 40 mM KCl, 40 μM ATP 1 mM MgCl₂, 0.12% tween and 0.5 mM TCEP. In the simplest assay, dimeric GST-Kif7-CC at a concentration of 120 nM is immobilized on an anti-GST biosensor chip. Unbound Kif7 is washed away with buffer, and the chips are then dipped into buffer with a range of Gli2-ZF concentrations from 0-1 μM to allow for association of the two proteins. After 300 seconds, they are then moved back into a well with just buffer to allow dissociation for 400 seconds. The equilibrium response of each sensor from three independent repeats at each Gli2 concentration were normalized and plotted against Gli2 concentration and fitted with a Hill function to obtain a Kₜ. […] The assays were also performed with HIS-tagged Kif7-DM and the Kif7-Kif27 chimeric proteins, requiring the use of an anti-penta-HIS biosensor chip, and referencing sensors to account for non-specific binding of Gli2 to the HIS sensor. A flipped assay, using HIS-tagged Gli2 on the sensor and a range of Kif7 concentrations in buffer, was also conducted.

Experiment [1] addresses T2, Gli2-ZF-SNAP (human, UniProt P10070 418-604, Alexa 647 dye on the SNAP tag in the TIRF assays).
T2 construct: Labeled with Alexa 647 for TIRF microscopy; used unlabeled (as far as told) for cryo-EM; also called Gli2-ZF-SNAP-Alexa 647; Gli2-ZF-Alexa 647; not shown: C-terminal SNAP tag
T2 sequence (looked up): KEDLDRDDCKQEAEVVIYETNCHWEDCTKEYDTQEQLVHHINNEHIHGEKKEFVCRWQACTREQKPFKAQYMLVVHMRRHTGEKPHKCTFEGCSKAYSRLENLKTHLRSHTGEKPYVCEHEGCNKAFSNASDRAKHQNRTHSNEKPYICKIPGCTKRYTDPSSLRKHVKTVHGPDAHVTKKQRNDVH
As to the kind of experiment: TIRF microscopy; 100 nM Kif7-DM-GFP and 100 nM Alexa-647 labeled Gli2-ZF-SNAP on GMPCPP microtubules. Here is the method: Rhodamine/HiLyte 647 labeled GMPCPP-stabilized microtubules (grey) were immobilized on a PEG-treated glass coverslip (yellow) via neutravidin-biotin linkages (blue & brown respectively). Kif7-DM-GFP (green), Gli2-ZF-SNAP-Alexa 647 (pink) and 1 mM ATP were subsequently added to examine binding of both proteins on microtubules. All proteins for TIRF microscopy assay were purified to >95% purity (FIGS. 11A & 11B). See also FIGS. 11C-11D.
To examine whether the Kif7-Gli interaction described above is sufficient for recruiting Gli to microtubules, we reconstituted Gli and Kif7 on microtubules and examined their activity using an in vitro TIRF microscopy assay. Briefly, fluorescently labeled (Rhodamine/HiLyte-647) and biotinylated microtubule seeds, polymerized with the non-hydrolyzable GTP analog GMPCPP, were immobilized on a glass coverslip through neutravidin-biotin linkages (FIG. 4A). GMPCPP was chosen as it mimics the GTP-form of tubulin present at microtubule ends (Jiang et al., Developmental cell, 49, 711-730. e8 2019). […] A Gli2 control was used to measure non-specific binding of Gli2-ZF to microtubules. Single molecule photobleaching of purified Kif7-DM confirmed that it is a dimer (FIGS. 11A-D).

For experiment [2], the target named is T2, Gli2-ZF-SNAP. The experiment can be described thus: TIRF microscopy; 100 nM Gli2-ZF-SNAP-Alexa647 with 100 nM kinesin on microtubules. From the text:
Briefly, fluorescently labeled (Rhodamine/HiLyte-647) and biotinylated microtubule seeds, polymerized with the non-hydrolyzable GTP analog GMPCPP, were immobilized on a glass coverslip through neutravidin-biotin linkages (FIG. 4A). GMPCPP was chosen as it mimics the GTP-form of tubulin present at microtubule ends (Jiang et al., Developmental cell, 49, 711-730. e8 2019). […] A Gli2 control was used to measure non-specific binding of Gli2-ZF to microtubules. Single molecule photobleaching of purified Kif7-DM confirmed that it is a dimer (FIGS. 11A-D).
To address which of the two Gli-interaction sites of Kif7 plays a role in modulating Kif7 microtubule binding, we generated two chimeric proteins where we swapped either the motor and neck-linker (M) or the coiled-coil (CC) domains of Kif7 and Kif27 (Kif7M-Kif27CC and Kif27M-Kif7CC) (FIG. 5E). […] The binding affinity for each of the two Gli interaction sites on Kif7-DM could be determined using BLI (FIG. 12H). We compared the two chimeras to Kif7-DM in TIRF microscopy-based microtubule binding assay. […] Next, we compared how the microtubule binding of the chimeras were regulated by Gli with respect to Kif7-DM.

B1: ZF4-5 (530-604) (other, human, UniProt P10070 530-604, looked up)
Gli2 zinc-finger truncation: EKPYVCEHEGCNKAFSNASDRAKHQNRTHSNEKPYICKIPGCTKRYTDPSSLRKHVKTVHGPDAHVTKKQRNDVH
notes: residues 530-604; One of the three truncations of the group m9; also called Gli2-ZF truncation ZF4-5
Turning to B1, the binding result in the experiment with GST-Kif7-CC (460-600aa) is “no binding (tested: 125 nM)”.

B2: ZF1-2 (418-497) (other, human, UniProt P10070 418-497, looked up)
Gli2 zinc-finger truncation: KEDLDRDDCKQEAEVVIYETNCHWEDCTKEYDTQEQLVHHINNEHIHGEKKEFVCRWQACTREQKPFKAQYMLVVHMRRH
notes: One of the three truncations of the group m9; also called Gli2-ZF truncation ZF1-2
Consider B2, for which the binding result with GST-Kif7-CC (460-600aa) is “no binding (tested: 125 nM)”.

B3: Kif7-DM-GFP (1-543aa) (other)
chain: MGLEAQRLPGAEEAPVRVALRVRPLLPKELLHGHQSCLQVEPGLGRVTLGRDRHFGFHVVLAEDAGQEAVYQACVQPLLEAFFEGFNATVFAYGQTGSGKTYTMGEASVASLLEDEQGIVPRAMAEAFKLIDENDLLDCLVHVSYLEVYKEEFRDLLEVGTASRDIQLREDERGNVVLCGVKEVDVEGLDEVLSLLEMGNAARHTGATHLNHLSSRSHTVFTVTLEQRGRAPSRLPRPAPGQLLVSKFHFVDLAGSERVLKTGSTGERLKESIQINSSLLALGNVISALGDPQRRGSHIPYRDSKITRILKDSLGGNAKTVMIACVSPSSSDFDETLNTLNYASRAQNIRNRATVNWRPEAERPPEETASGARGPPRHRSETRIIHRGRRAPGPATASAAAAMRLGAECARYRACTDAAYSLLRELQAEPGLPGAAARKVRDWLCAVEGERSALSSASGPDSGIESASVEDQAAQGAGGRKEDEGAQQLLTLQNQVARLEEENRDFLAALEDAMEQYKLQSDRLREQQEEMVELRLRLELVRP
notes: Dimer; Used in TIRF, size exclusion and BLI (HIS-tagged, anti-penta-HIS sensor); also called GFP-tagged recombinant dimeric Kif7 protein; GFP-tagged Kif7-DM; not shown: TEV-cleavable N-terminal 6xHis tag and SUMOstar tag; His tag on in the BLI assay, state in other a; GFP tag, C-terminal by the name
As for B3, the “fold increase over background of Gli2 intensity on microtubules” value with Gli2-ZF-SNAP [1] stood at 3 fold. Moreover, the “fold Gli2-ZF Alexa-647 intensity on microtubules over Gli2 alone” value with Gli2-ZF-SNAP [2] was approximately 9 fold.

B4: ZF3-5 (500-604) (other, human, UniProt P10070 500-604, looked up)
Gli2 zinc-finger truncation: EKPHKCTFEGCSKAYSRLENLKTHLRSHTGEKPYVCEHEGCNKAFSNASDRAKHQNRTHSNEKPYICKIPGCTKRYTDPSSLRKHVKTVHGPDAHVTKKQRNDVH
notes: residues 500-604; One of the three truncations of the group m9; also called Gli2-ZF truncation ZF3-5
On to B4, for which the binding result with GST-Kif7-CC (460-600aa) is “no binding (tested: 125 nM)”.

For the origin of these results see patent US20230374088A1 (GENERAL HOSPITAL, published 2023).
